“And” between values parts separate entries of the source, which are not always exact repeats. Equal values may be shown once. Read-outs that look alike come from different tables or passages of the source.
B1: fusion protein of GluA3-ATD and rsEGFP2 (rsEGFP2-GluA3) (domain or fragment, UniProt P19492 23-408, looked up)
chain: GFPNTISIGGLFMRNTVQEHSAFRFAVQLYNTNQNTTEKPFHLNYHVDHLDSSNSFSVTNAFCSQFSRGVYAIFGFYDQMSMNTLTSFCGALHTSFVTPSFPTDADVQFVIQMRPALKGAILSLLSYYKWEKFVYLYDTERGFSVLQAIMEAAVQNNWQVTARSVGNIKDVQEFRRIIEEMDRRQEKRYLIDCEVERINTILEQVVILGKHSRGYHYMLANLGFTDILLERVMHGGANITGFQIVNNENPMVQQFIQRWVRLDEREFPEAKNAPLKYTSALTHDAILVIAEAFRYLRRQRVDVSRRGSAGDCLANPAVPWSQGIDIERALKMVQVQGMTGNIQFDTYGRRTNYTIDVYEMKVSGSRKAGYWNEYERFVPFSDQQIS
modifications: native complex glycosylation
notes: GluA3 AMPA receptor amino-terminal domain, residues Gly23-Ser408; The fluorescent protein is the detection tag and is not written as a part; it is joined by SGSG (before) and SGS (after); The methods call the fluorescent protein rsEGFP, the results rsEGFP2; Cut with thrombin; also called rsEGFP-GluA3 ATD fusion construct; source: HEK293T, transient transfection, secreted, purified (HiTrap NTA, …)
B2: Dylight488-labeled GluA2-ATD (amino-terminal domain of the AMPA receptor GluA2) (domain or fragment, UniProt P19491 22-404, looked up)
chain: VSSNSIQIGGLFPRGADQEYSAFRVGMVQFSTSEFRLTPHIDNLEVANSFAVTNAFCSQFSRGVYAIFGFYDKKSVNTITSFCGTLHVSFITPSFPTDGTHPFVIQMRPDLKGALLSLIEYYQWDKFAYLYDSDRGLSTLQAVLDSAAEKKWQVTAINVGNINNDKKDETYRSLFQDLELKKERRVILDCERDKVNDIVDQVITIGKHVKGYHYIIANLGFTDGDLLKIQFGGANVSGFQIVDYDDSLVSKFIERWSTLEEKEYPGAHTATIKYTSALTYDAVQVMTEAFRNLRKQRIEISRRGNAGDCLANPAVPWGQGVEIERALKQVQVEGLSGNIKFDQNGKRINYTINIMELKTNGPRKIGYWSEVDKMVVTLTELPS
modifications: Dylight488 (N-hydroxysuccinimide ester-activated dye); native complex glycosylation
notes: signal peptide in the construct; secreted; Cut with thrombin after IMAC; also called DL488-GluA2; source: HEK293T, transient transfection, secreted, purified (HiTrap NTA, thrombin, HiTrap Q); labelled with Dylight488 and separated from free dye on Superdex 75; not shown: His8, C-terminal, cleaved

Legend:
[1] = target: GluA3 ATD (Rattus norvegicus) (UniProt P19492); conditions: cited from earlier work
[2] = target: GluA2 ATD (Rattus norvegicus) (UniProt P19491); conditions: cited from earlier work
[3] = target: GluA2 ATD (Rattus norvegicus) (UniProt P19491); conditions: cited from earlier work; remark: listed apart in the source
[4] = target: GluA3 ATD (Rattus norvegicus) (UniProt P19492); conditions: cited from earlier work; remark: listed apart in the source
[5] = target: B2; test: AUC; MCMC FDS-SV, equimolar dilution series of DL488-GluA2 and rsEGFP2-GluA3 from 0.1-30 nM, 13 mW excitation beam, 50,000 rpm, 20°C; global fit of component sw isotherms with a linked homo- and hetero-dimerization model, K_(d,22) fixed at 27.1 nM; conditions: both partners purified
[6] = target: B1; test: AUC; FRAP-like FDS-SV, equimolar mixtures of rsEGFP2-GluA3 and DL488-GluA2, 20 min stationary 488 nm exposure at 6.5 cm before scanning, 50,000 rpm, 20°C; component sw isotherm with competitive homo- and hetero-dimerization model; conditions: both partners purified
[7] = target: the molecule itself; test: AUC; fluorescence-detected sedimentation velocity (FDS-SV), dilution series of DL488-GluA2 from 0.2 nM to 200 nM, 50,000 rpm, 20°C, 488 nm excitation; c(s) and sw isotherm with monomer-dimer model; dimer to monomers; 0.1 mg/ml unlabeled BSA added
[8] = target: B1; test: AUC; MCMC FDS-SV, equimolar dilution series of DL488-GluA2 and rsEGFP2-GluA3 from 0.1-30 nM, 13 mW excitation beam, 50,000 rpm, 20°C; global fit of component sw isotherms with a linked homo- and hetero-dimerization model, K_(d,22) fixed at 27.1 nM; conditions: both partners purified

In the case of GluA3 ATD (from UniProt P19492), the Kd [1] is given as 5600 nM.

In the case of GluA2 ATD (from UniProt P19491), the Kd [2] is listed as 1.8 nM, the Kd [3] is listed as 20.5 nM and the Kd [4] is listed as 1.3 nM.

With B1 the “stoichiometry N” value [5] was 1.

For B2, the Kd [6] was 0.68 nM, the Kd [7] was 24 nM and 27.1 nM and the “stoichiometry N” value [7] was 2. For the same molecule, the Kd [8] was 0.32 nM.

Source: paper PMC4985284, “Monochromatic multicomponent fluorescence sedimentation velocity for the study of high-affinity protein interactions” (eLife, 2016)
